According to PMC8062120:

Key:
[1] = molecular target: F-actin (rabbit skeletal muscle actin, polymerized) (rabbit) (UniProt P68135)
[2] = molecular target: F-actin (Oryctolagus cuniculus) (UniProt P68135); details: cited from earlier work
[3] = molecular target: α-actinin-2 (Homo sapiens) (UniProt P35609); details: cited from earlier work
Chain of α-actinin-2 (Homo sapiens) (P35609 whole entry): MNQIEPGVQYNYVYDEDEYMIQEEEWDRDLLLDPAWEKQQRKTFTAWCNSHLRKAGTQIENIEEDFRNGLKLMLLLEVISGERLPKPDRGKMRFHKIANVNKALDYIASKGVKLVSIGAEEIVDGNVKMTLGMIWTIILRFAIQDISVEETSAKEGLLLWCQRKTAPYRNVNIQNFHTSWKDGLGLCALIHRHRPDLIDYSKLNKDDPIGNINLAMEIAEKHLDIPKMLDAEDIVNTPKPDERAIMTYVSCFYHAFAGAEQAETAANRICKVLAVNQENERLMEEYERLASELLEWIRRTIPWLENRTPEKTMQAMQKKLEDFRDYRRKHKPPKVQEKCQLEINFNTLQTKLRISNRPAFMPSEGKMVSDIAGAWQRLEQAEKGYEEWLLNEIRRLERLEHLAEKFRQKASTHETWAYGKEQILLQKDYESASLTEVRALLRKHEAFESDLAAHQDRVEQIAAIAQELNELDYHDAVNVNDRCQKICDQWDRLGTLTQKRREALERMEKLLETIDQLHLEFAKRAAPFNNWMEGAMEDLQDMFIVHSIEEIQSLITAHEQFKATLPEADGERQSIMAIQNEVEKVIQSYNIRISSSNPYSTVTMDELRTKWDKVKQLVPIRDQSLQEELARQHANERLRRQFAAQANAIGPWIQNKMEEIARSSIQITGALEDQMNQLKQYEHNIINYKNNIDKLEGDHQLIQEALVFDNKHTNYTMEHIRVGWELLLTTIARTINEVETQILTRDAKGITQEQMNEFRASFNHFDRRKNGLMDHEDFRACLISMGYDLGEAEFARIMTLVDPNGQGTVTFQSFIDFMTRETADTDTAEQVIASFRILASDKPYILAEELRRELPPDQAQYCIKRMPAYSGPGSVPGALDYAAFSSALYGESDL

Chain of Titin Zr-7 (Q8WZ42 692-740): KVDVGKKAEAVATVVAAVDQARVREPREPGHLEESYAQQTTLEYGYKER

Row | Substance | FRAP in Z-discs of C2C12 myotubes, median half-time of fluorescence recovery [1] [s] | other results
1 | N-terminal EGFP fusion of myotilin, wild type (from UniProt Q9UBF9 1-498) (natural protein) | 72.4 | –
2 | Palladin (from UniProt Q8WX93) | – | Kd [2]: 2100 nM
3 | N-terminal EGFP fusion of myotilin K359A (from UniProt Q9UBF9 1-498) (natural protein) | 64.1 | –
4 | Titin Zr-7 (from UniProt Q8WZ42) | – | Kd [3]: 480 nM

Further lines, with some results ahead:

Row | FRAP in Z-discs of C2C12 myotubes, median half-time of fluorescence recovery [1] [s] | Substance | other results
5 | 48.2 | N-terminal EGFP fusion of myotilin K354A (from UniProt Q9UBF9 1-498) (natural protein) | –
6 | 35.5 | N-terminal EGFP fusion of myotilin K354/359A (from UniProt Q9UBF9 1-498) (natural protein) | –
7 | 32.3 | N-terminal EGFP fusion of myotilin K354/358/359A (from UniProt Q9UBF9 1-498) (natural protein) | –
